According to patent publication US20230087805A1:

Experiments:
[1] = target: C1ND (recombinant human CEACAM1 N-domain, residues 35-142, C-terminal Strep-Tag II, made in Expi293 cells) (human) (UniProt P13688); assay: isothermal titration calorimetry, HopQ^AD titration with C1ND, 25 °C, 1:1 stoichiometry
[2] = target: C1ND (recombinant human CEACAM1 N-domain, residues 35-142, C-terminal Strep-Tag II, made in Expi293 cells) (human) (UniProt P13688); assay: ELISA, C1ND coated, HopQ fragments titrated

Substance | Kd [1] | fold reduction of CEACAM1 binding affinity against HopQ^AD [2]
HopQ^AD (HopQ adhesin domain; soluble HopQ type I fragment of H. pylori strain G27, residues 37-463, C-terminal 6x His-tag) | 296 nM | –
HopQ^ADΔID (HopQ^AD in which amino acids 190-218 of the mature protein are replaced by two glycines) | – | 10 fold
